Results published in patent US6770458 (VANDERBILT UNIVERSITY, dated 2004).

Target: T1, SNF1 fused to the GAL4 DNA-binding domain (pAS2) (UniProt P04386 1-147; P06782 1-633, limits assumed)
T1 construct: Unrelated control protein in the yeast two-hybrid system
Test: yeast two-hybrid, β-galactosidase
Procedure: Cloning of STRAP. Northern blot and Southern blot analysis—Y190 containing pAS2-R4C was transformed with a pACT-mouse embryonic cDNA library, and transformants were subjected to selection for histidine prototrophy on SC-his, -trp, -leu plates containing 25 mM 3-aminotriazole (as described in Harper at al., *Cell* 75: 805–816 (1993) and Durfee et al., *Genes Dev.* 7:555–569 (1993)) and rare surviving colonies were then screened for β-galactosidase activity using a colony filter lift assay. Resulting clones, after second screening, were mated with Y187 containing the unrelated proteins p53, lamin, SNF1 and CDK2 fused to the GAL4 DNA-binding domain and tested for β-galactosidase activity. Positive clones were recovered from yeast and retransformed into Y190 with one of several unrelated molecules including lamin, SNF1, p53 or CDK2 in pAS2, for further testing of the specific interaction.
A color photograph was prepared showing STRAP or FKBP12.6 in pACT transformed into yeast strain Y190 containing R4C or one of several unrelated proteins including lamin. SNF1, p53 or CDK2 in pAS2. Transformants were tested for β-galactosidase activity by colony filter lift assay. A blue color indicated a positive interaction.

B1: STRAP (Serine-Threonine Kinase Receptors Associated Protein) in pACT (other)
chain: MAMRQTPLTCSGHTRPVVDLAFSGITPYGYFLISACKDGKPMLRQGDTGDWIGTFLGHKGAVWGATLNKDATKAATAAADFTAKVWDAVSGDELMTLAHKHIVKTVDFTQDSNYLLTGGQDKLLRIYDLNKPEAEPKEISGHTSGIKKALWCSDDKQILSADDKTVRLWDHATMTEVKSLNFNMSVSSMEYIPEGEILVITYGRSIAFHSAVSLEPIKSFEAPATINSASLHPEKEFLVAGGEDFKLYKYDYNSGEELESYKGHFGPIHCVRFSPDGELYASGSEDGTLRLWQTVVGKTYGLWKCVLPEEDSGELAKPKIGFPETAEEELAEEIASENSDSIYSSTPEVKA
notes: Yeast two-hybrid prey from a pACT mouse embryonic cDNA library (1.6 kb cDNA); also called STRAP clone; not shown: fusion partner encoded by the pACT library vector
- binding result: no binding
